Experimental data taken from US20260176683A1 (RIJKSUNIVERSITEIT GRONINGEN, published 2026).

Tests used:
[1] = biological target: His6-TEV-YaxB (full-length YaxB monomer) (Yersinia enterocolitica); experiment: 1:1 mixing of monomers, SEC, insertion into lipid bilayers
C-reactive protein = biological target: T1, C-reactive protein (UniProt P02741 19-224); experiment: single-nanopore electrophysiology, CRP added to cis
T1 construct: also called CRP
T1 sequence: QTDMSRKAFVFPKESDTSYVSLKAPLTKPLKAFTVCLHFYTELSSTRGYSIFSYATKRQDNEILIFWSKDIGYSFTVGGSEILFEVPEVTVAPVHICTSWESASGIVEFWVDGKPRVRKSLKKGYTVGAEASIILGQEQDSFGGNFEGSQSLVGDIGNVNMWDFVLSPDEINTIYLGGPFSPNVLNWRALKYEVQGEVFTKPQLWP

| Binder | binding result [1] | binding result (C-reactive protein) |
| --- | --- | --- |
| His6-TEV-YaxA (full-length YaxA monomer) (other) MSYYHHHHHHDYDIPTTENLTRSSENLYFQSGGTQTQLAIDNVLASAESTIQLNELPKVVLDFITGEQTSVARSGGIFTKEDLINLKLYVRKGLSLPTRQDEVEAYLGYKKIDVAGLEPKDIKLLFDEIHNHALNWNDVEQAVLQQSLDLDIAAKNIISTGNEIINLINQMPITLRVKTLLGDITDKQLENITYESADHEVASALKDILDDMKGDINRHQTTTENVRKKVSDYRITLTGGELSSGDKVNGLEPQVKTKYDLMEKSNMRKSIKELDEKIKEKRQRIEQLKKDYDKFVGLSFTGAIGGIIAMAITGGIFGAKAENARKEKNALISEVAELESKVSSQRALQTALEALSLSFSDIGIRMVDAESALNHLDFMWLSVLNQITESQIQFAMINNALRLTSFVNKFQQVITPWQSVGDSARQLVDIFDEAIKEYKKVYG | binds |  |
| YaxAΔ40BN-strepII-70aa-flex nanopore (other) chain 1: […] chain 2: MSYYHHHHHHDYDIPTTENLYFQGWSHPQFEKGSSGSTSNASAGTGSATGSNSTAGASSGNSAGTGTSSGSTGSANSSAGTGSGSATASAGNSGTSTAGNSTAEISTFPHSGLSYPDINFKIFSQGVKNISHLAQFKTTGVEVLQEKALRVSLYSQRLDVIVRESLSSLQVKLENTLALTYFTTLEEIDEALISQDIDEESKSEMRKERINIIKNLSNDITQLKQLFIEKTELLDKSSSDLHNVVIIEGTDKVLQAEQLRQKQLTEDIATKELERKEIEKKRDKIIEALDVIREHNLVDAFKDLIPTGENLSELDLAKPEIELLKQSLEITKKLLGQFSEGLKYIDLTDARKKLDNQIDTASTRLTELNRQLEQSEKLIAGVNAIIKIDQEKSAVVVEAEKLSRAWHIFIHEITALQGTSLNEVELSKPLIKQQIYLESLIKQLI |  | no binding (tested: 20 nM CRP) |
